Data taken from paper PMC5995387, “Binding of EphrinA5 to RET receptor tyrosine kinase: An in vitro study” (PLoS ONE, 2018).
Several values for one entry are separate records, joined by “and”; a condition that tells them apart may be missing. Equal entries are not always repeated.

How the values were obtained:
EphA4 LBD (Homo sapiens) = EphA4 LBD (Homo sapiens) (UniProt P54764); test: SPR; details: cited from earlier work
EphA3-Fc (Mus musculus) = EphA3-Fc (Mus musculus) (UniProt P29319); details: cited from earlier work
[1] = molecular target: T1, zebrafish GDNF family receptor alpha 1 extracellular domain (zGFRα1^ECD), Flag-His8-tagged (zebrafish (Danio rerio), UniProt Q98TT9 31-351); test: native gel or EMSA; Blue Native PAGE, 4-20% gradient gel, Coomassie-stained; purified proteins mixed and incubated 30 min at room temperature, run at 4 °C; zefn-A5^ECD 8 μM, molar ratio 2:1:1:1:1 (zefn-A5^ECD:zRET^ECD:zGDNF:zGFRα1^ECD:mEphA4^LBD); band of the ternary complex checked by LC-MS/MS; details: both partners purified
T1 construct: GDNF family receptor alpha 1, zebrafish, extracellular domain, residues 31-351 of NCBI NP_571805.1; not shown: Flag, N-terminal, kept; His8, N-terminal, kept
T1 sequence (looked up): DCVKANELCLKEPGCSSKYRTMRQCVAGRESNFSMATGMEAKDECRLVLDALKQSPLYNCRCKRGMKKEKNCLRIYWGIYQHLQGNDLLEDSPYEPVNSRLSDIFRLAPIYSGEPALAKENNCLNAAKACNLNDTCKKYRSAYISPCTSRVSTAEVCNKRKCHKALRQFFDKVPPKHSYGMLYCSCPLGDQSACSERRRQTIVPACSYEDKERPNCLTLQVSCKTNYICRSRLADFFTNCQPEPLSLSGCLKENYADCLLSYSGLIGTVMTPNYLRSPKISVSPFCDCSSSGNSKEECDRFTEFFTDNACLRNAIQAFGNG

[2] = molecular target: T2, zebrafish ephrinA5b extracellular domain (zefn-A5^ECD), Flag-His8-tagged (zebrafish (Danio rerio), UniProt P79728 21-204); test: BLI; BLItz, zefn-A5^ECD (140 μM) immobilised on Ni-NTA biosensor; SEC buffer with 0.5% Tween-20; 2 min association, 3 min dissociation; Kd from plateau values, one-site total binding model; details: both partners purified
T2 construct: ephrin-A5b, zebrafish, extracellular domain, residues 21-204 of NCBI NP_571101.1; thrombin cleavage site between the tags and the protein (pK503.9 vector); also called Danio rerio efn-A5b; efn-A5b; not shown: Flag, N-terminal, kept; His8, N-terminal, kept
T2 sequence (looked up): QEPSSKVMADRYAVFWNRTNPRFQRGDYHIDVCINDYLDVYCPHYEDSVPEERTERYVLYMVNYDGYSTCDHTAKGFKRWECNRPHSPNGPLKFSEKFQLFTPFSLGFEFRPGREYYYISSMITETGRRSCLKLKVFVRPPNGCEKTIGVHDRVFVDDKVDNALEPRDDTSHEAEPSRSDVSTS

Sequence of EphA4 LBD (Homo sapiens) (P54764 30-209): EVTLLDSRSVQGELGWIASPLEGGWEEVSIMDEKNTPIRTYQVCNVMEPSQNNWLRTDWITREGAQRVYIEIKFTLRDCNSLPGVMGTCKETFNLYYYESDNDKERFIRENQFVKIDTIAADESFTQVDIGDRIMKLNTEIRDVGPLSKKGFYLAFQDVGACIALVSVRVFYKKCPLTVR
Sequence of EphA3-Fc (Mus musculus) (P29319 21-540): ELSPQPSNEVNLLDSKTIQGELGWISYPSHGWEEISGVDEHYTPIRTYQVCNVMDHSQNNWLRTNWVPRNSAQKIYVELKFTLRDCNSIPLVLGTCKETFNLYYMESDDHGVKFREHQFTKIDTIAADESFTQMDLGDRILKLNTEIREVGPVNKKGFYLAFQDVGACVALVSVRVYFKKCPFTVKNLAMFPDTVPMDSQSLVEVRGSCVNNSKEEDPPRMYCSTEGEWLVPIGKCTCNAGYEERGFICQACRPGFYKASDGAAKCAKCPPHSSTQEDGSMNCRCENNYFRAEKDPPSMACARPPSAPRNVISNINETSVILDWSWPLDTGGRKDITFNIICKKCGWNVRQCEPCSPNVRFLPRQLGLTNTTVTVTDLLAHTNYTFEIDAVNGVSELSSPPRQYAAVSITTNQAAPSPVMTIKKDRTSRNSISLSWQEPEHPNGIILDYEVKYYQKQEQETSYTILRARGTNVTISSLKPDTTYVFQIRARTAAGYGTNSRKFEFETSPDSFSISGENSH

Molecule: ephrinA5 ECD (from UniProt P52803)
- Kd (EphA4 LBD (Homo sapiens)): 360 nM

Molecule: ephrinA5 ECD (from UniProt O08543)
- Kd (EphA3-Fc (Mus musculus)): 8 nM

B1: zebrafish RET extracellular domain (zRET^ECD), Flag-His8-tagged (domain or fragment, zebrafish (Danio rerio), UniProt A8E7C6 22-626, looked up)
chain: GLYFPQRLYTENIYVGQQQGSPLLQVISMREFPTERPYFFLCSHRDAFTSWFHIDEASGVLYLNKTLEWSDFSSLRSGSVRSPKDLTLKVGVSSTPPMKVMCTILPTVEVKLSFINDTAPSCGQVELSTLCFPEKISNPHITENREPGALRQLRRFTHMSICPNYTISYGVVAGSSVPFAVDDSTSELVVTAQVDREEKEVYHLDIVCMVRTERNLEEVFRSLHVNIYDEDDNSPYVNGTDTEDVLVEFDRSEGTVFGTLFVYDRDTTPVYPTNQVQNKLVGTLMTNDSWIKNNFAIEHKFREEKAIFGNVRGTVHEYKLKLSQNLSVTEQRSFLLGYLVNDTTFPGPEGTVLLHFNVTVLPVPIRFSNVTYSFTVSQKATTYSQIGKVCVENCQKFKGIDVTYQLEIVDRNITAEAQSCYWAVSLAQNPNDNTGVLYVNDTKVLRRPECQELEYVVIAQEQQNKLQAKTQLTVSFQGEADSLKTDEPRFPACAEKRQRGDCEATRGLGAPTGRCQWRQGRDKGISKRYSTCSPNLGTCPDGYCDAIESKNISICPQDCSSEAIIGGYERDLYGIKAGHGTCYCFEGKCFCERDEPEDDICNDMC
notes: RET receptor tyrosine kinase, zebrafish, extracellular domain, residues 22-626 of NCBI NP_858048.2; thrombin cleavage site after the tags (pK503.9 vector); A mixture of monomer, dimer and some higher oligomers by native PAGE; not shown: Flag, N-terminal, kept; His8, N-terminal, kept
- stoichiometry N [1]: ~1 zRET^ECD per zGFRα1^ECD (ternary complex with zGDNF)

B2: mouse EphA4 ligand-binding domain with C-terminal human IgG1 hinge and Fc (mEphA4^LBD) (Fc fusion, mouse (Mus musculus), UniProt Q03137-1 29-210, looked up)
chain: NEVTLLDSRSVQGELGWIASPLEGGWEEVSIMDEKNTPIRTYQVCNVMEASQNNWLRTDWITREGAQRVYIEIKFTLRDCNSLPGVMGTCKETFNLYYYESDNDKERFIRESQFGKIDTIAADESFTQVDIGDRIMKLNTEIRDVGPLSKKGFYLAFQDVGACIALVSVRVFYKKCPLTVRN
notes: concentrations were calculated for the monomeric form. pMA152a vector; also called Mus musculus EphA4; source: Hi5 insect cells, purified (Protein-A Sepharose); not shown: Fc (human IgG1, with hinge region), C-terminal, kept
- Kd [2]: 180 ± 10 nM

B3: mature zebrafish glial cell-derived neurotrophic factor (zGDNF), N-terminal Flag tag (ligand, zebrafish (Danio rerio), UniProt Q98TU0 90-235, looked up)
chain: SSDVEPQMKRDRVRQKAAANTEKSGGRGRGERKRSRGRARSRDDRVKGQGRGCLLKEIHLNVTDLDLGYRTKEELIFRYCSGPCHDAETNYDKILNNLTHNKKLDKDTPSRTCCRPIAFDDDISFLDDSLEYHTLKKHSAKKCACV
notes: GDNF, zebrafish, mature zGDNF, residues 90-236 of NCBI NP_571807.1; Written as zGDNF2 (dimer) in the complexes; concentrations were calculated for the monomeric form; also called zGDNF2; source: Hi5 insect cells (baculovirus), secreted, purified as previously described [24]; not shown: Flag, N-terminal, kept
- stoichiometry N [1]: 1 zGDNF per zGFRα1^ECD (2:2, binary complex) and ~2 zGDNF per zGFRα1^ECD (ternary complex with zRET^ECD)
